From article PMC3530167 come the findings set out here.

In this experiment the target is HLA-DM wild type, biotinylated at a BirA site on the C-terminus of DMα (human) (UniProt P28067). The experiment in a line: SPR. A general note: SPR reads the build-up and loss of mass on a sensor chip optically.
Sequence of UniProt P28067 (P28067 27-261, chain 1 of 2): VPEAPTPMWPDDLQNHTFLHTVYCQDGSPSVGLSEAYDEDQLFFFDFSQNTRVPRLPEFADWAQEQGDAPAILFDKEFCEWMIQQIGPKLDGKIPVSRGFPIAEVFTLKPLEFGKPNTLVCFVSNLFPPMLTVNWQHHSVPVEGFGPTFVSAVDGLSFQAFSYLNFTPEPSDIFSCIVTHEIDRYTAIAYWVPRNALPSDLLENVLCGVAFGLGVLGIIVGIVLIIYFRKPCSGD
Sequence of UniProt P28067 (P28068 19-263, chain 2 of 2, further chain): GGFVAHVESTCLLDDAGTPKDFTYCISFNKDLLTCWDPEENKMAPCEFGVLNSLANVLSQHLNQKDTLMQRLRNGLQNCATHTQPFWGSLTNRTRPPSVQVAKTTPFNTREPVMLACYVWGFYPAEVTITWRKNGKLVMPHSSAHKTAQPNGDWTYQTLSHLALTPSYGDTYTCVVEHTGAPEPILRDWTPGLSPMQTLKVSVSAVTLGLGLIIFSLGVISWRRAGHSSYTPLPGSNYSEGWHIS

“HLA-DR1 with a covalently linked, N-terminally truncated HA-like peptide (P2 to P11) (peptide-MHC)” displayed a fold lower affinity at pH 6.5 than at pH 5.5 of 3 fold.
